Measured values as given in patent US20230077716A1 (published 2023).
Several values for one entry are separate records, joined by “and”; a condition that tells them apart may be missing. Equal entries are not always repeated.

Target: recombinant B/Phuket/3073/2013 NA ectodomain (tetramer) (UniProt P16199 79-465)
Test: BLI

B1: 2E01 Fab (Fab, V domains shown)
VH: EVQLVQSGAEVKKPGSSVKVSCKASGYTFINHALSWVRQAPGQGLEWVGGIIPIFGLAKYGQKFQDRVTITADESTKTAYMDLRSLRSDDTAVYYCARDTVAVYEDFDWSSPYFFYMDVWGKGTTVTVSS
VL: EIVLTQSPATLSLFPGERATLSCRASQSAGSKSLAWYQHKVGQPPRLLINGASSRATGIPDRFSGSGSGPDFNLTISRLEPEDFAVYYCQRYGTSLVTFGGGTKVEIK
For B1, the Kd was 0.441 µM and 0.15 µM.
